The text below walks through data of US20100135951A1.

In the assay the target is TRAIL-R2 (human) (UniProt O14763). Description: cell-based or functional assay.
TRAIL-R2 (human), sequence (O14763 other isoform, or with tags, fused parts or gaps limits assumed): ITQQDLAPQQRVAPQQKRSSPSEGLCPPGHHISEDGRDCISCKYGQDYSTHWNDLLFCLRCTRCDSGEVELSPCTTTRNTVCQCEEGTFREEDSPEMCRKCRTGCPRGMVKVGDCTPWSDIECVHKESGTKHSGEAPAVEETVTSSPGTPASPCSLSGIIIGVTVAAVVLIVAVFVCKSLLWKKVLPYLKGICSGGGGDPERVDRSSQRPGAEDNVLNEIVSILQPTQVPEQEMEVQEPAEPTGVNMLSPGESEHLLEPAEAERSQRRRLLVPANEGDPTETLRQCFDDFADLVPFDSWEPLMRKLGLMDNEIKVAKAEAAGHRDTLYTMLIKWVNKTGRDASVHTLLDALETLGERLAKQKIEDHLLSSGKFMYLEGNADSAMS

With TRA-8 (antibody), the cell death (ATPLITE cell viability assay) came to 100%.
